Laboratory results taken from PMC8960796, “Crystal structure report of the ImmR transcriptional regulator DNA-binding domain of the Bacillus subtilis ICEBs1 transposon” (Scientific Reports, 2022).

Target: the molecule itself
Assay: crystal structure; crystals from 18% (w/v) PEG 3350, 10 mM magnesium chloride, 50 mM Tris-HCl pH 8.5; space group I2, two protomers per a.u. related by a dyad; data at 100 K, 2.10 Å

B1: ImmR transcriptional regulator DNA-binding domain (Bacillus subtilis ICEBs1) (domain or fragment, Bacillus subtilis strain 168, UniProt P96631 1-64, looked up)
chain: MSLGKRLKEARQKAGYTQKEAAEKLNIGNNNLSNYERDYRDPDTDTLLKLSNLYNVSTDYLLGK
notes: ImmR, HTH-type transcriptional regulator of ICEBs1, Bacillus subtilis strain 168, 127 residues; the final model comprises M1-K64 of molecules A and B, each with an N-terminal alanine (A0) left from the purification tag; Full-length ImmR (1-127) was set up for crystallisation; The authors suppose that a trypsin-like contaminant cut it after K64, because there is no density beyond K64 and the …
- binding result: binds
